We go through 2 molecules from patent US20160355553A1 (Janssen / Centocor, published 2016).

The target in assay [1] is hemagglutinin of influenza virus A/Johannesburg/33/94 (H3) (influenza A virus H3). Put plainly: cell-based or functional assay.
The target in assay [2] is hemagglutinin of influenza virus A/EW/MPF461/07 (H5) (influenza A virus H5). The assay is described as follows: cell-based or functional assay.
Assay [3] addresses HK68 H3mini2a-linker+cl9_+10+12+16+CG7-GCN4T (influenza A virus H3N2, UniProt Q91MA7 17-566). Put plainly: FACS on HEK293F.
The target in assay [4] is H3 HK68 mini2a-linker2+cl9_+10+12+GCN4T (influenza A virus H3N2, UniProt Q91MA7 17-566). The assay is described as follows: FACS on HEK293F.
Assay [5] deals with HK68 H3mini2a-linker+cl9_+10+12+19+GCN4T (influenza A virus H3N2, UniProt P12584 1-550). Put plainly: FACS on HEK293F.
Assay [6] addresses HK68 H3mini2a-linker+cl9_+10+12+17+CG7-GCN4T (influenza A virus H3N2, UniProt Q91MA7 17-566). The assay is described as follows: FACS on HEK293F.

B1: CR9114 (antibody, V domains shown)
VH: QVQLVQSGAEVKKPGSSVKVSCKSSGGTSNNYAISWVRQAPGQGLDWMGGISPIFGSTAYAQKFQGRVTISADIFSNTAYMELNSLTSEDTAVYFCARHGNYYYYSGMDVWGQGTTVTVSS
VL: SYVLTQPPAVSGTPGQRVTISCSGSDSNIGRRSVNWYQQFPGTAPKLLIYSNDQRPSVVPDRFSGSKSGTSASLAISGLQSEDEAEYYCAAWDDSLKGAVFGGGTQLTVL
On to B1, for which the “virus neutralization assay on MDCK cells, geomean IC50” value stood at 21.9 µg/mL in assay [1] and 10.5 µg/mL in assay [2].

B2: CR8057 (antibody, V domains shown)
VH: EVQLVESGGGLVQPGGSLRLSCAASGFTDSVIFMSWVRQAPGKGLECVSIIYIDDSTYYADSVKGRFTISRHNSMGTVFLEMNSLRPDDTAVYYCATESGDFGDQTGPYHYYAMDV
VL: QSALTQPASVSGSPGQSITISCTGSSGDIGGYNAVSWYQHHPGKAPKLMIYEVTSRPSGVSDRFSASRSGDTASLTVSGLQAEDEAHYYCCSFADSNILI
With B2, the binding result in assay [3], in assay [4], in assay [5] and in assay [6] was “no binding (tested: 5 ug/ml)” in each case.
